According to US20180273587A1 (AILERON THERAPEUTICS, published 2018):
Positions of bridges follow the written chain, without caps; N, C: chain ends. Non-standard residues stand in square brackets, D forms with d. hCha = N[C@@H](CCC1CCCCC1)C(=O)O; hPhe = N[C@@H](CCc1ccccc1)C(=O)O; R8 = C=CCCCCCC[C@@](C)(N)C(=O)O; αMeD = C[C@](N)(CC(=O)O)C(=O)O; S5 = C=CCCC[C@](C)(N)C(=O)O

Assays:
Test in all cases: Ki table, method not stated
[1] = target: BCL-XL (UniProt Q07817 1-209)
[2] = target: BCL-2 (UniProt P10415 1-217, limits assumed)
Sequence of BCL-2 (P10415 1-217 limits assumed): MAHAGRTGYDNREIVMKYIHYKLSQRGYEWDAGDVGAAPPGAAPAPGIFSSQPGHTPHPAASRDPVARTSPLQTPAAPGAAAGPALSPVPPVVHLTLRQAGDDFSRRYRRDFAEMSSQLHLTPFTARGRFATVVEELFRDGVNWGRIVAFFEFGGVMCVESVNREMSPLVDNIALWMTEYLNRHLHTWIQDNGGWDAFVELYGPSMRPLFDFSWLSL

[3] = target: T1, MCL-1 (UniProt Q07820 172-327, limits assumed)
T1 construct: also called Myeloid cell leukemia 1
T1 sequence (Q07820 172-327 limits assumed): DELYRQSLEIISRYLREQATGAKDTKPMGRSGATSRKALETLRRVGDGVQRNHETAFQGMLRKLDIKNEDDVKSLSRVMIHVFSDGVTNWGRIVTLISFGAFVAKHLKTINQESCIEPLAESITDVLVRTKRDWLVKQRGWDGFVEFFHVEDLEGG

Sequence of BCL-XL (Q07817 1-209): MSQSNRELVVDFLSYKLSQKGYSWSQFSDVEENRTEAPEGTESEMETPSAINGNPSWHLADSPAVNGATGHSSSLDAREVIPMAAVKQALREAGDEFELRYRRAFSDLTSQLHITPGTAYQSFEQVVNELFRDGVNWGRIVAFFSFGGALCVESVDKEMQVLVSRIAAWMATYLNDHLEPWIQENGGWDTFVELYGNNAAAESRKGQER

B1: SEQ ID NO: 1688 (peptide)
peptide: Ac-IWIAQA[hhL]R[R8]IGDAFN[S5]YYA-NH2
modifications: staple 9-16
notes: also called Ac-IWIAQAhhLR$r8IGDAFN$YYA-NH2
[1]
  Ki: 136 nM
[2]
  Ki: 231 nM

B2: SEQ ID NO: 1629 (peptide)
peptide: Ac-IWIAQELR[R8]IGDEFN[S5]YYARR-NH2
modifications: staple 9-16
SMILES: CC[C@H](C)[C@H](NC(C)=O)C(=O)N[C@@H](Cc1c[nH]c2ccccc12)C(=O)N[C@H](C(=O)N[C@@H](C)C(=O)N[C@@H](CCC(N)=O)C(=O)N[C@@H](CCC(=O)O)C(=O)N[C@@H](CC(C)C)C(=O)N[C@@H](CCCNC(=N)N)C(=O)N[C@]1(C)CCCCCCC=CCCC[C@@](C)(C(=O)N[C@@H](Cc2ccc(O)cc2)C(=O)N[C@@H](Cc2ccc(O)cc2)C(=O)N[C@@H](C)C(=O)N[C@@H](CCCNC(=N)N)C(=O)N[C@@H](CCCNC(=N)N)C(N)=O)NC(=O)[C@H](CC(N)=O)NC(=O)[C@H](Cc2ccccc2)NC(=O)[C@H](CCC(=O)O)NC(=O)[C@H](CC(=O)O)NC(=O)CNC(=O)[C@H]([C@@H](C)CC)NC1=O)[C@@H](C)CC
[1]
  Ki: 9.2 nM
[2]
  Ki: 23.5 nM

B3: SEQ ID NO: 1656 (peptide)
peptide: IWIAQALXAIGDQFNAYYA
modifications: not fully specified; Ac- at N-terminus; -NH2 at C-terminus; $r8 at 9 and $ at 16 joined by all-carbon crosslinker; Cit (citrulline) at 8
[1]
  Ki: 28.8 nM
[2]
  Ki: 88.2 nM

B4: SEQ ID NO: 1634 (peptide)
peptide: Ac-WIAQALR[R8]IGDAFN[S5]YYA-NH2
modifications: staple 8-15
SMILES: CC[C@H](C)[C@H](NC(=O)[C@H](Cc1c[nH]c2ccccc12)NC(C)=O)C(=O)N[C@@H](C)C(=O)N[C@@H](CCC(N)=O)C(=O)N[C@@H](C)C(=O)N[C@@H](CC(C)C)C(=O)N[C@@H](CCCNC(=N)N)C(=O)N[C@]1(C)CCCCCCC=CCCC[C@@](C)(C(=O)N[C@@H](Cc2ccc(O)cc2)C(=O)N[C@@H](Cc2ccc(O)cc2)C(=O)N[C@@H](C)C(N)=O)NC(=O)[C@H](CC(N)=O)NC(=O)[C@H](Cc2ccccc2)NC(=O)[C@H](C)NC(=O)[C@H](CC(=O)O)NC(=O)CNC(=O)[C@H]([C@@H](C)CC)NC1=O
notes: also called Ac-WIAQALR$r8IGDAFN$YYA-NH2
[2]
  Ki: 410 nM

B5: SEQ ID NO: 1709 (peptide)
peptide: Ac-IWIAQALR[R8]IG[αMeD]AFN[S5]YYA-NH2
modifications: staple 9-16
SMILES: CC[C@H](C)[C@H](NC(C)=O)C(=O)N[C@@H](Cc1c[nH]c2ccccc12)C(=O)N[C@H](C(=O)N[C@@H](C)C(=O)N[C@@H](CCC(N)=O)C(=O)N[C@@H](C)C(=O)N[C@@H](CC(C)C)C(=O)N[C@@H](CCCNC(=N)N)C(=O)N[C@]1(C)CCCCCCC=CCCC[C@@](C)(C(=O)N[C@@H](Cc2ccc(O)cc2)C(=O)N[C@@H](Cc2ccc(O)cc2)C(=O)N[C@@H](C)C(N)=O)NC(=O)[C@H](CC(N)=O)NC(=O)[C@H](Cc2ccccc2)NC(=O)[C@H](C)NC(=O)[C@](C)(CC(=O)O)NC(=O)CNC(=O)[C@H]([C@@H](C)CC)NC1=O)[C@@H](C)CC
[1]
  Ki: 15.5 nM

B6: SEQ ID NO: 1673 (peptide)
peptide: Ac-IWIAQALA[R8]IGDAFN[S5]YYA-NH2
modifications: staple 9-16
SMILES: CC[C@H](C)[C@H](NC(C)=O)C(=O)N[C@@H](Cc1c[nH]c2ccccc12)C(=O)N[C@H](C(=O)N[C@@H](C)C(=O)N[C@@H](CCC(N)=O)C(=O)N[C@@H](C)C(=O)N[C@@H](CC(C)C)C(=O)N[C@@H](C)C(=O)N[C@]1(C)CCCCCCC=CCCC[C@@](C)(C(=O)N[C@@H](Cc2ccc(O)cc2)C(=O)N[C@@H](Cc2ccc(O)cc2)C(=O)N[C@@H](C)C(N)=O)NC(=O)[C@H](CC(N)=O)NC(=O)[C@H](Cc2ccccc2)NC(=O)[C@H](C)NC(=O)[C@H](CC(=O)O)NC(=O)CNC(=O)[C@H]([C@@H](C)CC)NC1=O)[C@@H](C)CC
[3]
  Ki: 73.8 nM
[1]
  Ki: 386 nM

B7: SEQ ID NO: 1690 (peptide)
peptide: Ac-IWIAQA[hCha]R[R8]IGDAFN[S5]YYA-NH2
modifications: staple 9-16
SMILES: CC[C@H](C)[C@H](NC(C)=O)C(=O)N[C@@H](Cc1c[nH]c2ccccc12)C(=O)N[C@H](C(=O)N[C@@H](C)C(=O)N[C@@H](CCC(N)=O)C(=O)N[C@@H](C)C(=O)N[C@@H](CCC1CCCCC1)C(=O)N[C@@H](CCCNC(=N)N)C(=O)N[C@]1(C)CCCCCCC=CCCC[C@@](C)(C(=O)N[C@@H](Cc2ccc(O)cc2)C(=O)N[C@@H](Cc2ccc(O)cc2)C(=O)N[C@@H](C)C(N)=O)NC(=O)[C@H](CC(N)=O)NC(=O)[C@H](Cc2ccccc2)NC(=O)[C@H](C)NC(=O)[C@H](CC(=O)O)NC(=O)CNC(=O)[C@H]([C@@H](C)CC)NC1=O)[C@@H](C)CC
notes: also called Ac-IWIAQAhChaR$r8IGDAFN$YYA-NH2
[3]
  Ki: 3.8 nM

B8: SEQ ID NO: 1692 (peptide)
peptide: Ac-IWIAQA[hPhe]R[R8]IGDAFN[S5]YYA-NH2
modifications: staple 9-16
SMILES: CC[C@H](C)[C@H](NC(C)=O)C(=O)N[C@@H](Cc1c[nH]c2ccccc12)C(=O)N[C@H](C(=O)N[C@@H](C)C(=O)N[C@@H](CCC(N)=O)C(=O)N[C@@H](C)C(=O)N[C@@H](CCc1ccccc1)C(=O)N[C@@H](CCCNC(=N)N)C(=O)N[C@]1(C)CCCCCCC=CCCC[C@@](C)(C(=O)N[C@@H](Cc2ccc(O)cc2)C(=O)N[C@@H](Cc2ccc(O)cc2)C(=O)N[C@@H](C)C(N)=O)NC(=O)[C@H](CC(N)=O)NC(=O)[C@H](Cc2ccccc2)NC(=O)[C@H](C)NC(=O)[C@H](CC(=O)O)NC(=O)CNC(=O)[C@H]([C@@H](C)CC)NC1=O)[C@@H](C)CC
notes: also called Ac-IWIAQAhFR$r8IGDAFN$YYA-NH2
[3]
  Ki: 7.5 nM

B9: SEQ ID NO: 1635 (peptide)
peptide: Ac-IAQALR[R8]IGDAFN[S5]YYA-NH2
modifications: staple 7-14
SMILES: CC[C@H](C)[C@H](NC(C)=O)C(=O)N[C@@H](C)C(=O)N[C@@H](CCC(N)=O)C(=O)N[C@@H](C)C(=O)N[C@@H](CC(C)C)C(=O)N[C@@H](CCCNC(=N)N)C(=O)N[C@]1(C)CCCCCCC=CCCC[C@@](C)(C(=O)N[C@@H](Cc2ccc(O)cc2)C(=O)N[C@@H](Cc2ccc(O)cc2)C(=O)N[C@@H](C)C(N)=O)NC(=O)[C@H](CC(N)=O)NC(=O)[C@H](Cc2ccccc2)NC(=O)[C@H](C)NC(=O)[C@H](CC(=O)O)NC(=O)CNC(=O)[C@H]([C@@H](C)CC)NC1=O
notes: also called Ac-IAQALR$r8IGDAFN$YYA-NH2
[1]
  Ki: 309 nM
[2]
  Ki: 519 nM

B10: SEQ ID NO: 1638 (peptide)
peptide: Ac-IAQALR[R8]IADAFN[S5]YYA-NH2
modifications: staple 7-14
SMILES: CC[C@H](C)[C@H](NC(C)=O)C(=O)N[C@@H](C)C(=O)N[C@@H](CCC(N)=O)C(=O)N[C@@H](C)C(=O)N[C@@H](CC(C)C)C(=O)N[C@@H](CCCNC(=N)N)C(=O)N[C@]1(C)CCCCCCC=CCCC[C@@](C)(C(=O)N[C@@H](Cc2ccc(O)cc2)C(=O)N[C@@H](Cc2ccc(O)cc2)C(=O)N[C@@H](C)C(N)=O)NC(=O)[C@H](CC(N)=O)NC(=O)[C@H](Cc2ccccc2)NC(=O)[C@H](C)NC(=O)[C@H](CC(=O)O)NC(=O)[C@H](C)NC(=O)[C@H]([C@@H](C)CC)NC1=O
notes: also called Ac-IAQALR$r8IADAFN$YYA-NH2
[1]
  Ki: 243 nM
[2]
  Ki: 272 nM

B11: SEQ ID NO: 1640 (peptide)
peptide: Ac-IAQALR[R8]IGDAFN[S5]AYA-NH2
modifications: staple 7-14
SMILES: CC[C@H](C)[C@H](NC(C)=O)C(=O)N[C@@H](C)C(=O)N[C@@H](CCC(N)=O)C(=O)N[C@@H](C)C(=O)N[C@@H](CC(C)C)C(=O)N[C@@H](CCCNC(=N)N)C(=O)N[C@]1(C)CCCCCCC=CCCC[C@@](C)(C(=O)N[C@@H](C)C(=O)N[C@@H](Cc2ccc(O)cc2)C(=O)N[C@@H](C)C(N)=O)NC(=O)[C@H](CC(N)=O)NC(=O)[C@H](Cc2ccccc2)NC(=O)[C@H](C)NC(=O)[C@H](CC(=O)O)NC(=O)CNC(=O)[C@H]([C@@H](C)CC)NC1=O
notes: also called Ac-IAQALR$r8IGDAFN$AYA-NH2
[1]
  Ki: 472 nM
[2]
  Ki: 804 nM

B12: SEQ ID NO: 1631 (peptide)
peptide: Ac-IAQALR[R8]IGDAFA[S5]YYA-NH2
modifications: staple 7-14
SMILES: CC[C@H](C)[C@H](NC(C)=O)C(=O)N[C@@H](C)C(=O)N[C@@H](CCC(N)=O)C(=O)N[C@@H](C)C(=O)N[C@@H](CC(C)C)C(=O)N[C@@H](CCCNC(=N)N)C(=O)N[C@]1(C)CCCCCCC=CCCC[C@@](C)(C(=O)N[C@@H](Cc2ccc(O)cc2)C(=O)N[C@@H](Cc2ccc(O)cc2)C(=O)N[C@@H](C)C(N)=O)NC(=O)[C@H](C)NC(=O)[C@H](Cc2ccccc2)NC(=O)[C@H](C)NC(=O)[C@H](CC(=O)O)NC(=O)CNC(=O)[C@H]([C@@H](C)CC)NC1=O
notes: also called Ac-IAQALR$r8IGDAFA$YYA-NH2
[1]
  Ki: 374 nM
[2]
  Ki: 878 nM

B13: SEQ ID NO: 1636 (peptide)
peptide: Ac-IAAALR[R8]IGDAFN[S5]YYA-NH2
modifications: staple 7-14
SMILES: CC[C@H](C)[C@H](NC(C)=O)C(=O)N[C@@H](C)C(=O)N[C@@H](C)C(=O)N[C@@H](C)C(=O)N[C@@H](CC(C)C)C(=O)N[C@@H](CCCNC(=N)N)C(=O)N[C@]1(C)CCCCCCC=CCCC[C@@](C)(C(=O)N[C@@H](Cc2ccc(O)cc2)C(=O)N[C@@H](Cc2ccc(O)cc2)C(=O)N[C@@H](C)C(N)=O)NC(=O)[C@H](CC(N)=O)NC(=O)[C@H](Cc2ccccc2)NC(=O)[C@H](C)NC(=O)[C@H](CC(=O)O)NC(=O)CNC(=O)[C@H]([C@@H](C)CC)NC1=O
notes: also called Ac-IAAALR$r8IGDAFN$YYA-NH2
[1]
  Ki: 256 nM
[2]
  Ki: 319 nM

B14: SEQ ID NO: 1630 (peptide)
peptide: Ac-WIAQALR[R8]IGDAFN[S5]YYA-NH2
modifications: staple 8-15
SMILES: CC[C@H](C)[C@H](NC(=O)[C@H](Cc1c[nH]c2ccccc12)NC(C)=O)C(=O)N[C@@H](C)C(=O)N[C@@H](CCC(N)=O)C(=O)N[C@@H](C)C(=O)N[C@@H](CC(C)C)C(=O)N[C@@H](CCCNC(=N)N)C(=O)N[C@]1(C)CCCCCCC=CCCC[C@@](C)(C(=O)N[C@@H](Cc2ccc(O)cc2)C(=O)N[C@@H](Cc2ccc(O)cc2)C(=O)N[C@@H](C)C(N)=O)NC(=O)[C@H](CC(N)=O)NC(=O)[C@H](Cc2ccccc2)NC(=O)[C@H](C)NC(=O)[C@H](CC(=O)O)NC(=O)CNC(=O)[C@H]([C@@H](C)CC)NC1=O
notes: as for B4
[1]
  Ki: 213 nM
[2]
  Ki: 424 nM
